The RNAGym collection of RNA variant scans (doi:10.1073/pnas.2313332121)

B1: TPR t1 (parent)
chain: GACCAAUCUGCCCUCAGAGCUCGAGAACAUCUUCGGAUGCAGAGGAGGCAGGCUUCGGUGGCGCGAUAGCGCCAACGUCCUCAACCUCCAAUGCAUCCCACCACAUGAUGAUGCCUGAAGAGCCUUGGUUUUUUG

Variants of: B1
Assay: polymerase ribozyme fitness, log enrichment relative to wild type (log ratio); higher = more active; in vitro selection for triplet polymerase activity
Summary of the method: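 Mutant libraries of both subunits of a heterodimeric triplet polymerase ribozyme were PCR-built, transcribed, and selected once in triplicate, with frozen incubation at −7 °C and capture of gel-excised extended constructs on streptavidin beads before RT-PCR. Illumina sequencing of input and output libraries was filtered to genotypes with ≥10 input reads and ≥1 read per output. Fitness is the logarithm of genotype enrichment over wild-type enrichment, using inverse-variance-weighted replicate averages. The logarithm is base 2.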

Variant | polymerase ribozyme fitness (log ratio)
C86A C124G G128A | 0.914
C88G U129A | -3.06
A83C G113A | -1.32
A83C G113C | -2.78
C88A C123G | 1.69
C88G G117A G120C | -4.17
A84U C94G | -1.24
C88A C104U G127A | -1.76
C85G C86U U92A | -5.3
C85U G113A G120U | -2.7
C85G C88A C101A | -2.28
C82U C88A G120U G128A | -1.98
C88A U125G | -1.18
A84U G135U | -1.03
A83G U129G | -1.68
C86G C123U | 0.323
C86G C123A | -0.0336
C85A C89U U92G G117A | -4.94
C88G U112A | 1.18
C86A A103U | -4.95
A84G C115U | -2.86
C88A G122A | -1.31
C85A C101G | -3.91
C82U U133A | -0.572

Variant | polymerase ribozyme fitness (log ratio)
A83U C85U C123G C124G | 1.28
A83G A105G C115U | -2.83
C88U C89G U92G | -2.44
U87G C115U | -0.742
C86U G93A | -0.143
C85G C89U G110U | -2.09
C85G U112A | 0.357
C88A U129A | -2.21
C88A U129G | -1.51
U87A U92A | -2.55
C85U C86A C94G G117C | -6.16
A84G G93U G120U | -2.23
A83G U92C C94A | -4.59
C86A | -0.461
C86G | -0.82
C86U | -0.178
C88G G113U U125C U132A | -3.76
U87C U106A G128C | -1.61
A84U U112A | 0.956
A83C C101U | 0.114
U87A G117U U129G | -5.03
C88G C115G | -3.51
U87G U96A C102A | -2.66
A84G A91U | -3.76

Variant | polymerase ribozyme fitness (log ratio)
C85U A121G | 1.61
A83G C85A | -2.68
A84G C102A | -3.38
C88A G93U G120U | -3.17
A84G G117U G135U | -4.65
C86A C104U | 0.0777
U87G | 0.133
U87A | 0.0155
U87C | 0.386
C88U C89A | -1.24
U87C A90G U96A | 0.000334
C85G C88A C101U C124U | -0.871
C82U U96A | -1.57
C86U C115G | -1.57
C85U C114U | -3.18
C85A C97A | -7.29
U87A U92G G93U C104A A111G C114U U130C | -7.15
A83U A100U C123U U125G | 0.186
C85A G117C | -5.07
U87G A111C | 1.16
A84U C102A A103G U109G C114U | -3.45
C86A C99U C101U A121G G122U | -1.38
A83U G120U | -1.06
A83C A95U U116C | -1.65

Variant | polymerase ribozyme fitness (log ratio)
U87G A91U | -1.46
C88A C98A | -4.39
C85G U106C | -0.939
A84U A121C | 2.22
C88U C99U | -2.42
C82U A119U | -0.592
C88U A90G C99U | -2.84
A83U C88U C101A | -1.52
A84G G128C | -3.48
C86U U92C C115A C124A G127A | -1.31
C88U A118G | 0.0785
A83C C115A | 0.0144
C85A G128U | -4.02
C85G U96G A105U | -4.68
U87C C102U U112A G122A | -0.872
C86G U112C | -1.94
A84C G93A C101U | -1.17
C86G G122U | -1.75
C88U C94U U129G | -1.48
U87G U126G | -1.84
U87A G93C | -1.3
U87C C104U | 0.232
A83U A100C C114U | -3.1
A84C C85G U133C | -0.825

Variant | polymerase ribozyme fitness (log ratio)
U87G C102U | -0.897
C85A U106A U125A | -3.11
A83U U132C | -0.0917
A84G G117U | -3.75
A83C C124G | 0.483
C85U | -0.966
C85A | -1.96
C85G | -1.74
C85U U116A G120C | -1.14
A84U C101G U125G | -2.42
C85U U106G | -2.74
C85A G113U | -3.47
C85A G127C | -4.59
C85A G127U | -4.56
C86U G120C | 1.51
A83G G120U G122U | -0.467
U87A A105G | -2
A84C U96C A121G U125A | 1.66
C88G A91C | -2.11
U87A U106G U125G | -2.01
C85U C89G | -1.76
C88A U96C G110C U132C | -4.37
C85U U109A A121G | -4.29
A83G A84C | -1.03

Variant | polymerase ribozyme fitness (log ratio)
C86A U106A | 0.119
C88G U92A | -4.09
C85U G93A G120U | -0.509
C88G U125G | -1.44
U87G C104U G117A | -3.2
C88U A91U C115G | -3.9
C86A U87A | -2.7
U87G C99U | -3.22
C88G C114U | -1.84
A84G A95U C104A A121C | -2.33
C88A A111C | 0.245
A83C C94U G128A | -2.4
C82U C86G A121G | 1.16
C86U C98A | -4.48
A84G U92C U106G G113C | -4.32
C88G A91U U112A | -1.38
C88U C97A U109G | -6.35
C82U A111G | -0.268
C85A A111U | -4.18
C86U U112G | 0.18
C86U U112C | 0.942
C86U U96A U106G | -4.25
C86A A95C | -2.08
C86A G110A | -1.86

Variant | polymerase ribozyme fitness (log ratio)
C86U C98U G117C | -5.99
C85A C114G | -4.62
C88U C98G C114G | -6.17
C86A C104A G120C U130A | -1.56
C82U C85A A121U | 0.305
C82U C88U | -0.335
U87A A111U | -2.69
C88A U109C | -5.25
C88A U109A | -5.8
A83U A108U | -5.5
C85A C94U U112C | 0.116
A84U C88G C115U U126A | -3.84
A83C A111U U134G | -2.14
C88G G127C | -2.07
A83G U116A | -3.6
C88A C114U | -2.51
C88U C97A | -4.84
C88A U112A | -0.232
A84U A103U G110C | -3.57
C86U A111U | -2.11
C85G C102U G113U G117A G120C | -5.52
C88G G113A | -1.99
C88G G113C | -2.74
